Results on one substance are retold here after paper PMC8158037.

The target in this experiment is δ-toxin (secreted by S. aureus MW2 and its ΔPSMα strain) (Staphylococcus aureus MW2). The experiment is described as follows: AUC + SEC-MALS + native MS + cross-linking.

“δ-toxin (secreted by S. aureus MW2 and its ΔPSMα strain) (peptide)”: the stoichiometry N – broadly, a count of units in the complex or per binding partner – was 8.
